The data set can be described thus: protease stability score; higher = more stable; yeast display proteolysis, trypsin and chymotrypsin.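 Further: relative to predicted unfolded state with 0 unfolded-like and 1 meaning tenfold more protease.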
On to “DDHEHFHREIWRTWLELQLTGDPHRLERLADPHVRFVYGDKVFHGREKMSEHFERENRELGIDHVEVRIKDSRFIDGRVHHDSELIIRVDGRTYKHDVKVIIDKVDGRWNIQKVEIR”, for which the protease stability score is 1.07.
Regarding “DDHEKDLTDMARRNYHWWKTGDFDRVIDLLDPTTRLIVGDKKFHGWDEFSHALELFRKQLRPNDSKLKREEVYGDKMVIHSHLHGTVDGKEVHHDVIFTFVIIDGRIHLIIIEPR”, the protease stability score worked out at 0.516.
The figure for “DDHEKIVQHLLEEIIEIWLTGNFEEHLKRFDPDMRLNVNGVEHHGRESNERWFNKQIERYKNATIHHRIESVDVQGDKVHSDGELIYIQGDKIIRTKIIVRLLVVNGRIKRIEIEMI” is 1.31; for “DDHEKLSEEHMRFIRHAIKTGDEETLKELADPDMRINVNGRLFHGWEHFFKIWEHIRRHLRFKDYDIHDFEIYGDKIHADTRVKSRVNGVERIITTEVLIMKVDGRWYNHEVRLH” it is 0.71.
Sequence “DDHEKRLEEYMKHWFENLMTGNEERLHELADPNARFHLHFENHEVDLIGREDIIKWWREFLHRVKNIRHHLDHLEIQGEKSHLDMTLNIDGKEYRVRIIVVIVNGKIHKVIVDIR” registered a protease stability score of 2.23.
As for “DDHERDAERAIKELMHNFETGNEDFLNEMADPNMRVIINGKEHIGWENFRHHLRRVLHELRIKRIHIRQVRVQGEWVNVISEFIGEVDGREHRVETSYILLKVNGRWTLHSMYFE”, the protease stability score came out at 2.69.
In turn, “DDHETEMIHWAELFAELIRTGDEEKLDKLLDPNVKIDINGRKFHGRESMRFALKHLRIHHVEIDDLKVQGDKSFWIGFVEGQIDGQRDRRHSTIELLLVNGRIKSVQLEFR” came in with a protease stability score of 1.61.
The sequence “DDHHEELRKFVEELSRARETGDEELIESLIDPHVKINVGDKRLHGRRAVEILLHEWRVHFFHSERMEVYGDKARIEGHMNGEYNGRRHETKLEMYVHKVNGKWILQHFTVE” returned a protease stability score of 2.17.
“DDHHELLKRMMDIIKEQFLTGDWEEHRRMADPHVKVIINGVQLIGWEHIRRFEEEMRRQWRIHHVEDKDERYFEGRAHVHSEIDGEFDGKREIHHSVIHLHVVNGRLKRLELRFE”: the protease stability score was 1.28.
As for “DDHHEVARKIFFHHYNITQTGDEESIERLLDPNVRIIIDGKYIHGWEEILRLIRHIRIHRFNVHRVELQGEKLILDGFTDGSFDGKRITTTIDIYILKIDGRWFIQQIELR”, the figure is 1.46; as for “DDHKKLVDEMIRIVLEELKTGNEETFNKLADPNVKVEWNGVDNHGREEVEEWWREYREVLGVDVIHIELKHVDPQGDKARIDGIIVETQGEKHHSFRAHIIIVVVNGRMHSIHERRR”, 0.881; as for “DDHKKRVDHLLRELLHHWRTGDFEHIYKLADPHVRFHIQIGEFHHEAVGWDEVVRLIQTHLDQLGVDHLRIRRVKSQGDKLYIETESYIGDFRIEFHIIWIVVNGRLKEQRMHIHEG”, 1.45.
“DDHRDRLEHHASEFITAMLTGNWERLYQLVDPHVRLEIHVNGRKQHRVGREEFWTQWQKFVEDFGIDHSHLDRMEVIGNKMHAEFNIRVGDKRFILELHVIIVNGRISEVRVDFR” returned a protease stability score of 2.15.
“DDHSSARKFADEFREMMKTGDSTKADELFDPNVRVEVGDKRYHGREQAVDWIRHLVDRYDHIEIRIDHITVRGDRISIVFTVHYEKNGETTYDRYVMVAVDRNGRAQIKMLRKG” had a protease stability score of 2.09.
Sequence “DDIDEHAETVVDHLIRSQMTGNEELFQHLADPHARLDINGKEYVGRELVSKIITHLRIHFLEIQFLHVQGDKVTIDVKIRGKVDGRTETSDQRLILVKINGKWLLTEIEVG” gave a protease stability score of 1.03.
“DDIDHFLLEIVLRFIEDNLTGNEDNLRKMADPDTRIFIHIGEKEFRIHGREAWTEWILTIVDHMRMRLNIRRLEWQGDKARITQEQDIHVGNKTHTTEVELHIVIIDGKMHTVHVELR” gave a protease stability score of 1.36.
Take “DDIEEDVKEFLRLMKEMNETGDEHRLTEMADPNVRVHIGDKHFHGREDAERLWRRADVFHHIKIKEYELQGDKLYMNVEVDGKFDGKRIRHDVTEIVTKVNGRWLLRSIRFD”: the protease stability score came out at 0.577.
For the sequence “DDIEEILKEAFERLIHDLRTGNEDNLRSLIDPNVRLNWNGQELHGREHVLELLTRIKNLRIEDWTTKDQRYQGDKIEMDGILHTRIGDKEIHLETHIHVRKVDGRWKIEQLDFR”, the protease stability score was determined as 2.
“DDIEEILRRMTELFWRALATGDEREERELADPHVRLDVNGRTYHGMEKVREWYRRIDHHHFETWHYHHIEFQGEKVYIEGRMRVNLDINGQELRIDTFTIILMLVINGRIHRFQYQVH”: the protease stability score came out at 0.467.
As to “DDIEETFRHYLDQWIRDLRTGDEEALYRLADPNARHKINGQHLHGRELHDHEFNRIKNLKVDFVTRDIRIIGDKLIIHGEMIIRINGRQISIDTEIYLRKIDGRWFVEQVNVG”, the protease stability score was 0.305.
“DDIEHDVKFFMERWVEAINTGDWKLLKKLVDPDAKFLIGDKELHGRELYVRHVLELRYRTEMIDNKIEVYDGRVHADMQVHSTLHIDGRNVDIHTHTRVVTRKVDGQWRLKSMEIL” yielded a protease stability score of 0.993.
Sequence “DDIEKDIREVLDILIRAFQTGDEDKILELFDPHARVDVGEYHNHGWERVEEWMHRVDHIDVRRLEIKHFHHINGRIVLHTHFDGILTINGREIHTETEVHIILVKINGKWYFKEISHH” registered a protease stability score of 2.12.
As for “DDIEKDMERFTHVWLEAWRTGDEDLAKELFDPNTRVEQGDKKYHGRTEFVNLLSHIRIRDMRIHDIHYIVIDGKAIIDFDGELTIDVNGRFHRHRVIIHVEVIKINGQWEISQMRIEVR”, the figure is 1.11; as for “DDIEKLMLWALHLFSHALSTGNEELVIRLADPHYRLHIGDWESHGRENFRQFIHEIRMHMKRVDDRDIRVQGEFVRIEGELDGVIFIDGRTFRTRLDTRIILNKVDGRWFIHSNHVH”, 1.27; as for “DDIHRIIKTALELWLRVLETGDERLIHELLDPDARFVINGKFYHGREVWEEERRQIDHIRMDTFHLKHIDLVNGRLRIEGHIVFTVHVNGRTTRREEDVHFILTKFNGKWEMQSLNIE”, 1.15.
The sequence “DDIKEESRHAHEEMLKIIKTGNEEVFEEMADPDVRIILDINGRDVRSHGREEAVRFWHEFMERVKGLRIHTDDLIVVGDKIELRIHSRYNGVRTHIRMIVSKFDGVWLLTELEIRVV” yielded a protease stability score of 1.75.
As for “DDIKEETDHLVDLLMEDIITGNERRLSHLADPNVRFTVGDWHSHGRKEMVEALRFTLDRADHVEYQPHRIENQGDKATAVIRVKLEYNGRTEEFRLIFTMEKIDGKWIVHKIFYR”, the protease stability score was 0.976.
The sequence “DDIKHEILRLMQLAFHYWETGDWEHFHHLADPHVRIDLDFNGKRLDLHGRDELQRVLEEELKRIDHFELHVTSLTDQGNKAELHGHRHIHQGDKRIDVRVINILIVVDGRIKTYSVHIR” gave a protease stability score of 0.909.
The figure for “DDIREDLLRIIKLFIDYLITGDWKWIEKLADPHVRVEIDVNGKEIERHGMDQLREHLKHLWDRYDHLEFRIDDFKAIGEYSTLNGTLIVVVDGQKKSVEVRVVIVIINGKIDEVRHEQN” is -0.239.
The sequence “DDIRKWMEHVFRDFNRSLKTGDERRSLELLDPHARIDINGVELIGREMFRKELHEMRIHVDDFDIESVDIQGDKVHLRTRVRVTIIVDGVKIHEERELEIHLHKFDGRWYIKEIRVR” showed a protease stability score of 1.46.
As to “DDKDEHSYRVAEDVVEAWLTGDWRWLMDMFDPHVRMDIDIDGVDIHLHGRHELARYILEEHQKYKNITVHIEHIRVQGDFIEINTSVRIDGQRHDRRLIIRIINGKIEEHQIHVR”, the protease stability score worked out at 1.01.
Take “DDKDEILLKLAKIVFENELTGDEESLEHLFDPNTRRIVNGKELVGWELISKYWKEQKKEMRVELRLRRHDIQGDKTRVRGEEILEIGEFKLILDVEITIVVINGRFTRIEIRVK”: the protease stability score was 0.185.
In turn, “DDKDEKSKKWAEMFIHLIETGDEERIRELLDPDVRVEIGDKEIHGRERWLEWERRMRDKYKNLRFRIEHHHIQGDKVHIRTEREIGDKSLDIRIEIIIYNGRAKEFHIDIR” returned a protease stability score of 2.87.
With “DDKDELTRTALEIFEYLEITGDWHVVSREADPHVRIVIGDKHLHGMEIFMDLTEELGVDHSSVHSLRSQGDKIDIDIELHQGEKSFRTKVTAEKVDGRWLIKRVLFR”, the protease stability score worked out at 1.3.
As for “DDKDQHEEVEKFARNVVSGNSDELRKQMDKDVRANVGDKTLRGREEVADFWKHMRDRIDHAEIKEIRFHNGEARIVMQFVHNGRTKQINIVMEFHDGHVKRLRVEDG”, the figure is 2.58.
Take “DDKEEHWHELNRIYFEWFRTGDEELIAKNADPNVRYHIDGREFHGREDFDKLMDHLSRKFKNARIEFDDMRWQGDKLHLRGTLRVGDKNIDTRIHIVIVNGQLHLIIHIRD”: the protease stability score is 1.31.
The figure for “DDKEETARRILDWITKLLLTGDFDTLHRMADPHMRSNYGEFEMHGMEEHSEWWHRLTLRVDHLREEIKRVTVVNGKIVADLRLRFIIGDKVEVRDITVELIVVDGRLKELRFDVK” is 1.14; for “DDKEKHVKRISEILLHTWHTGNEESLNRMFDPEVKVYWNGRELVGRENSSKHLAEEKRRADHVEIEIKDVHVIGNKMIIDGTLRRHIGDYQDESEVHIHIEVVDGRIKRLELRIK” it is 1.1; for “DDKEQRVEELARLLYKMLLTGDWKTLEHLADPHVRMHQGEYNNVGMETVVEHWRRWYEHIRLDDMKITDLKVYGNKLHTDIRLDGEVNGKHRILESELLLIVVDGKMREIEIRII” it is 1.19.
Consider “DDKHEINRELTRLFFETWLTGDEDWFQKMLDPHVRVEVGDKRSHGREEAARMLREHFESLGIKHLEYKSIELQGDKTIIDGRLDVDGQTRNSKIKVLIIDGRLTHLHIKLE”, for which the protease stability score came out at 1.01.
For the sequence “DDKHELSHKFVRLIMHLIDTGDEDDIHRLLDPHAKLHVGDKRFVGREDIAHFWKKHLDDLGADYRHTRLKHIDLIGEKVIVHTEIDLTVGEYRVTIDSTFVVEKINGRWLSREFRWN”, the protease stability score is 0.88.
Regarding “DDKKQFLDHAINRLIRALLTGDWHILFRLLDPHVRMIQGDKEYHGRELWREIYFQDIQRVPNLTFLIKDYHIDLQGDKLRIEIEGELIIDGVNIHMEIISEHTKVNGRWSIHHLEIRHQ”, the protease stability score stood at 1.33.
The figure for “DDKQRAYEELTRKTLEVIETGDERMIEEMLDPNVRIHIDGKHVHGMEEATRIFLHEFHHLGFKHFEFKSVIEVDEKLIVTGHMRVDGREVELRIVIWKVNGRWTTESIQIHRL” is 1.4; for “DDLDRYAEEAEKRHYENLETGDENRLQENADPHTRMDFNGRKFHGMDHNYHWMRKIREDLGVDNIRIHIHHMSVVDGVLHLDLIIRYGDKELRLHFVSEKINGRWRLKEVYYK” it is 0.855.
“DDLEEATEFYIKLYYEAVETGDERLITELADPNMRIDWNGREIHGREEFVRRLREMRVSRIEVQHVDKYGDKLHIHVRIIIEVGDKKIESSSHLISLKFNGRWLLKSMWIK” yielded a protease stability score of 1.39.
As to “DDLEEEAHKFLRIWLKNIITGDEDTLIELMDPRPRTIFNGVDLHGREDTSKRLSELRFNMRIDDIHVEVQGDKAIALSDVSYELIYNGRHVHLKSEIILTVRKFDGKWKAERLEIRIK”, the protease stability score was 1.67.
“DDLEEEAKDAVTKFIHLLLTGDWKEIREMVDPNVRIDVGDKEKHGWEDFIRDALYMHHQVDHIEVRIRHIDIFENRVVTHSVIYIEVNGQDIRLDLTLYIKKINGRWEIRQIEFK” came in with a protease stability score of 1.82.

Values taken from the NTF2 design screens of Basanta et al. (2020).
